Source: patent US20160237156A1

Experiments:
CXCR4 (human) [1] = molecular target: CXCR4 (human) (UniProt P61073); assay: flow cytometry on CXCR4 transfected CHO cells, 1 µg/ml antibody
[2] = molecular target: SNAP-tag-CXCR4 (Tag-lite labeled CXCR4 cells, Cisbio Bioassays) (UniProt P61073); assay: Tag-lite HTRF competition with 50 nM fluorescent SDF-1 on Tag-lite labeled CXCR4 cells
CXCR4 (human) [3] = molecular target: CXCR4 (human) (UniProt P61073); assay: flow cytometry on Jurkat cells, competition with fluorescein conjugated 12G5 (66.6 nM) as competitor
CXCR4 (human) [4] = molecular target: CXCR4 (human) (UniProt P61073); assay: cell-based or functional assay
[5] = molecular target: SNAP-tag-CXCR4 (Tag-lite labeled CXCR4 cells, Cisbio Bioassays) (UniProt P61073); assay: Tag-lite HTRF competition with 50 nM fluorescent SDF-1, Cheng-Prusoff

Chain of CXCR4 (human) (P61073 whole entry): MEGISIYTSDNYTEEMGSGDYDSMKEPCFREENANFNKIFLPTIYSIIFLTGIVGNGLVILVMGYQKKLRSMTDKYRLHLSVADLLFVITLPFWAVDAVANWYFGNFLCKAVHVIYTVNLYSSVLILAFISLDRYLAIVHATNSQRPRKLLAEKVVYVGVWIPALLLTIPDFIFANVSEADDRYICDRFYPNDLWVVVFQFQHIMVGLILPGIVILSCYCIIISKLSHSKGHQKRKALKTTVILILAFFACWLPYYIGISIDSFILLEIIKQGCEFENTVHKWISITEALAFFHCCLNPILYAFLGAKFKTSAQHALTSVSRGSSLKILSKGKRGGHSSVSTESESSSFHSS
Chain of SNAP-tag-CXCR4 (Tag-lite labeled CXCR4 cells, Cisbio Bioassays) (P61073 whole entry): as above

- flow cytometry peak shift (CXCR4 (human) [1]): 73.8%
- IC50 [2]: 9.58 nM
- IC50 (CXCR4 (human) [3]): 39.3 nM
- inhibition of SDF-1 induced migration of Ramos cells, EC50 (CXCR4 (human) [4]): 8.5 nM
- Ki [5]: 2.12 nM
B1: BLV1H12-beta BCCX2 HC 1 IgG (antibody, V domains shown)
VH: QVQLRESGPSLVKPSQTLSLTCTASGFSLSDKAVGWVRQAPGKALEWLGSIDTGGNTGYNPGLKSRLSITKDNSKSQVSLSVSSVTTEDSATYYCTSVHQETKKYQSYRKCRGGRRWCYQKSYTYNYEWHVDVWGQGLLVTVSS
VL: QAVLNQPSSVSGSLGQRVSITCSGSSSNVGNGYVSWYQLIPGSAPRTLIYGDTSRASGVPDRFSGSRSGNTATLTISSLQAEDEADYFCASAEDSSSNAVFGSGTTLTVLG
